Measured values reported in article PMC6777427, “Large-Scale Molecular Evolutionary Analysis Uncovers a Variety of Polynucleotide Kinase Clp1 Family Proteins in the Three Domains of Life” (Genome Biology and Evolution, 2019).

Tested on: T1, Nc1ncnc2c1ncn2[C@@H]1O[C@H](COP(=O)(O)OP(=O)(O)OP(=O)(O)O)[C@@H](O)[C@H]1O
T1 construct: codon-optimised synthetic gene in pET-23b (NdeI/XhoI), C-terminal His6 tag kept, expressed in E. coli BL21(DE3), heat-treated at 60 °C, HisTrap; approx. 27 kDa by SDS-PAGE
Experiment: purified protein
Format: biochemical, Thermus scotoductus
Settings: ssRNA oligonucleotide (5'-R20-FAM-3') as co-substrate, 10 mM MgCl2, pH 8.0, 60 °C, ATP 0.1-50 µM

Ts-Clp1 (Thermus scotoductus SA-01)
Km: 2.5 µM
